The values below are quoted from earlier work in PMC3742580.

Usually Kd stands for the concentration at which binding is half-saturated.

In this data set the target is Ras (Homo sapiens) (UniProt P01112).

Chain of RalGDS RA (Q12967 798-885): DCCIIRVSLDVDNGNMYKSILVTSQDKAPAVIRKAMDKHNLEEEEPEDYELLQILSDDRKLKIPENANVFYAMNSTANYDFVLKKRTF

Take RalGDS RA (from UniProt Q12967): the equilibrium dissociation constant (Kd) is 1.9 µM.
